Test results reported in IntAct's records for PubMed 18191225.

B1: Caveolin-3 (Mus musculus), P51637 (parent)
chain: MMTEEHTDLEARIIKDIHCKEIDLVNRDPKNINEDIVKVDFEDVIAEPEGTYSFDGVWKVSFTTFTVSKYWCYRLLSTLLGVPLALLWGFLFACISFCHIWAVVPCIKSYLIEIQCISHIYSLCIRTFCNPLFAALGQVCSNIKVVLRREG
partner: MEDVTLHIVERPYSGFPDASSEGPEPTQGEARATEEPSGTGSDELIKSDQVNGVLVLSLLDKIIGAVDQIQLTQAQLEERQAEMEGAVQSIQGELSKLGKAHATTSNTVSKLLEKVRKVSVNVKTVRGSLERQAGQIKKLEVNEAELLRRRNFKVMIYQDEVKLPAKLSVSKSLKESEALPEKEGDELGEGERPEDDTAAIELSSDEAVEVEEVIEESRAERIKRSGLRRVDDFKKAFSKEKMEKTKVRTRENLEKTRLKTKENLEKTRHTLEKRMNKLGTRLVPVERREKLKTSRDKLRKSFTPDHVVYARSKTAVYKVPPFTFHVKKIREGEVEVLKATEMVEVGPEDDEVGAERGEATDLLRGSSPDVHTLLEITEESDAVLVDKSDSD

Variants of: B1
Settings: with cavn1_mouse Cavin1, O54724

effect of a mutation on the interaction	Variant
decreasing interaction	MMTEEHTDLEARIIKDIHCKEIDLVNRDPKNINEDIVKVDFEDVIAEPEGTYSFDGVWKVSFTTFTVSKYWCYRLLSTLLGVPLALLWGFLFACISFCHIWAVVLCIKSYLIEIQCISHIYSLCIRTFCNPLFAALGQVCSNIKVVLRREG [P105L]
